Experimental data taken from patent publication US20060263802A1 (CRUCELL HOLLAND B V, published 2006).

Columns and labels:
Assay in all cases: PEPSCAN ELISA, looped peptide, antibody 10 µg/ml
[1] = biological target: looped/cyclic peptide … (rabies virus strain ERA)
[2] = biological target: looped/cyclic peptide … (rabies virus strain ERA); remark: listed apart in the source
[3] = biological target: looped/cyclic peptide … (rabies virus strain ERA); remark: listed apart in the source
[4] = biological target: looped/cyclic peptide … (rabies virus strain ERA); remark: listed apart in the source
[5] = biological target: looped/cyclic peptide … (rabies virus strain ERA); remark: listed apart in the source
[6] = biological target: looped/cyclic peptide … (rabies virus strain ERA); remark: listed apart in the source
[7] = biological target: looped/cyclic peptide … (rabies virus strain ERA); remark: listed apart in the source
[8] = biological target: looped/cyclic peptide … (rabies virus strain ERA); remark: listed apart in the source
[9] = biological target: looped/cyclic peptide … (rabies virus strain ERA); remark: listed apart in the source
[10] = biological target: looped/cyclic peptide … (rabies virus strain ERA); remark: listed apart in the source
[11] = biological target: looped/cyclic peptide … (rabies virus strain ERA); remark: listed apart in the source
[12] = biological target: looped/cyclic peptide … (rabies virus strain ERA); remark: listed apart in the source
[13] = biological target: looped/cyclic peptide … (rabies virus strain ERA); remark: listed apart in the source
[14] = biological target: looped/cyclic peptide … (rabies virus strain ERA); remark: listed apart in the source
[15] = biological target: looped/cyclic peptide … (rabies virus strain ERA); remark: listed apart in the source
[16] = biological target: looped/cyclic peptide … (rabies virus strain ERA); remark: listed apart in the source
[17] = biological target: looped/cyclic peptide … (rabies virus strain ERA); remark: listed apart in the source
[18] = biological target: looped/cyclic peptide … (rabies virus strain ERA); remark: listed apart in the source
[19] = biological target: looped/cyclic peptide … (rabies virus strain ERA); remark: listed apart in the source
[20] = biological target: looped/cyclic peptide … (rabies virus strain ERA); remark: listed apart in the source
[21] = biological target: looped/cyclic peptide … (rabies virus strain ERA); remark: listed apart in the source
[22] = biological target: looped/cyclic peptide … (rabies virus strain ERA); remark: listed apart in the source
[23] = biological target: looped/cyclic peptide … (rabies virus strain ERA); remark: listed apart in the source
[24] = biological target: looped/cyclic peptide … (rabies virus strain ERA); remark: listed apart in the source
[25] = biological target: looped/cyclic peptide … (rabies virus strain ERA); remark: listed apart in the source
[26] = biological target: looped/cyclic peptide … (rabies virus strain ERA); remark: listed apart in the source
[27] = biological target: looped/cyclic peptide … (rabies virus strain ERA); remark: listed apart in the source
[28] = biological target: looped/cyclic peptide … (rabies virus strain ERA); remark: listed apart in the source
[29] = biological target: looped/cyclic peptide … (rabies virus strain ERA); remark: listed apart in the source
[30] = biological target: looped/cyclic peptide … (rabies virus strain ERA); remark: listed apart in the source
[31] = biological target: looped/cyclic peptide … (rabies virus strain ERA); remark: listed apart in the source
[32] = biological target: looped/cyclic peptide … (rabies virus strain ERA); remark: listed apart in the source
[33] = biological target: looped/cyclic peptide … (rabies virus strain ERA); remark: listed apart in the source
[34] = biological target: looped/cyclic peptide … (rabies virus strain ERA); remark: listed apart in the source
[35] = biological target: looped/cyclic peptide … (rabies virus strain ERA); remark: listed apart in the source
[36] = biological target: looped/cyclic peptide … (rabies virus strain ERA); remark: listed apart in the source
[37] = biological target: looped/cyclic peptide … (rabies virus strain ERA); remark: listed apart in the source
[38] = biological target: looped/cyclic peptide … (rabies virus strain ERA); remark: listed apart in the source
[39] = biological target: looped/cyclic peptide … (rabies virus strain ERA); remark: listed apart in the source
[40] = biological target: looped/cyclic peptide […] (rabies virus strain ERA)
[41] = biological target: looped/cyclic peptide … (rabies virus strain ERA); remark: listed apart in the source
[42] = biological target: looped/cyclic peptide … (rabies virus strain ERA); remark: listed apart in the source
[43] = biological target: looped/cyclic peptide … (rabies virus strain ERA); remark: listed apart in the source
[44] = biological target: looped/cyclic peptide … (rabies virus strain ERA); remark: listed apart in the source
[45] = biological target: looped/cyclic peptide … (rabies virus strain ERA); remark: listed apart in the source
[46] = biological target: looped/cyclic peptide … (rabies virus strain ERA); remark: listed apart in the source
[47] = biological target: looped/cyclic peptide … (rabies virus strain ERA); remark: listed apart in the source
[48] = biological target: looped/cyclic peptide … (rabies virus strain ERA); remark: listed apart in the source
[49] = biological target: looped/cyclic peptide … (rabies virus strain ERA); remark: listed apart in the source
[50] = biological target: looped/cyclic peptide … (rabies virus strain ERA); remark: listed apart in the source
[51] = biological target: looped/cyclic peptide … (rabies virus strain ERA); remark: listed apart in the source
[52] = biological target: looped/cyclic peptide … (rabies virus strain ERA); remark: listed apart in the source
[53] = biological target: looped/cyclic peptide … (rabies virus strain ERA); remark: listed apart in the source
[54] = biological target: looped/cyclic peptide … (rabies virus strain ERA); remark: listed apart in the source
[55] = biological target: looped/cyclic peptide … (rabies virus strain ERA); remark: listed apart in the source
[56] = biological target: looped/cyclic peptide … (rabies virus strain ERA); remark: listed apart in the source
[57] = biological target: looped/cyclic peptide … (rabies virus strain ERA); remark: listed apart in the source
[58] = biological target: looped/cyclic peptide … (rabies virus strain ERA); remark: listed apart in the source
[59] = biological target: looped/cyclic peptide … (rabies virus strain ERA); remark: listed apart in the source
[60] = biological target: looped/cyclic peptide … (rabies virus strain ERA); remark: listed apart in the source
[61] = biological target: looped/cyclic peptide … (rabies virus strain ERA); remark: listed apart in the source

B1: human monoclonal antibody CRJA (antibody, V domains shown)
VH: EVQLLESGGGLVQPGGSLRLSCAASGFTFSNYAMSWVRQAPGKGLEWVSAISASGHSTYLADSVKGRFTISRDNSKNTLYLQMNSLRAEDTAVYYCAKDREVTMIVVLNGGFDYWGQGTRVTVSS
VL: EIVLTQSPATLSLSPGERATLACRASQTASRYLAWYQQKPGQAPRLLIYDTSNRATGIPARFSGSGSGTDFTLSISSLEPEDFAVYYCQQRFNWPWTFGQGTKVEFK
With B1 as the binder, how does the OD value [1] read?
Its OD value is 74 OD.

What about the OD value [2] of the same binder?
Its OD value is 110 OD.

And the OD value [3]?
The OD value was 58 OD.

What about the OD value [4] of the same binder?
Its OD value is 118 OD.

And the OD value [5]?
The OD value was 66 OD.

And the OD value [6]?
Its OD value is 92 OD.

What about the OD value [7] of the same binder?
Its OD value is 87 OD.

What about the OD value [8] of the same binder?
The OD value was 71 OD.

What about the OD value [9] of the same binder?
The OD value was 38 OD.

What about the OD value [10] of the same binder?
The OD value was 45 OD.

And the OD value [11]?
The OD value was 78 OD.

What about the OD value [12] of the same binder?
Its OD value is 46 OD.

And the OD value [13]?
The OD value was 71 OD.

And the OD value [14]?
The OD value was 83 OD.

What about the OD value [15] of the same binder?
The OD value was 82 OD.

And the OD value [16]?
The OD value was 110 OD.

And the OD value [17]?
The OD value was 104 OD.

And the OD value [18]?
The OD value was 72 OD.

What about the OD value [19] of the same binder?
The OD value was 83 OD.

And the OD value [20]?
The OD value was 93 OD.

What about the OD value [21] of the same binder?
Its OD value is 83 OD.

And the OD value [22]?
The OD value was 57 OD.

And the OD value [23]?
The OD value was 92 OD.

And the OD value [24]?
Its OD value is 71 OD.

And the OD value [25]?
The OD value was 105 OD.

What about the OD value [26] of the same binder?
The OD value was 105 OD.

And the OD value [27]?
Its OD value is 96 OD.

And the OD value [28]?
The OD value was 96 OD.

And the OD value [29]?
The OD value was 90 OD.

What about the OD value [30] of the same binder?
Its OD value is 90 OD.

What about the OD value [31] of the same binder?
The OD value was 86 OD.

What about the OD value [32] of the same binder?
The OD value was 55 OD.

What about the OD value [33] of the same binder?
Its OD value is 38 OD.

And the OD value [34]?
Its OD value is 90 OD.

What about the OD value [35] of the same binder?
The OD value was 82 OD.

What about the OD value [36] of the same binder?
Its OD value is 83 OD.

And the OD value [37]?
The OD value was 93 OD.

What about the OD value [38] of the same binder?
The OD value was 117 OD.

What about the OD value [39] of the same binder?
Its OD value is 86 OD.

What about the OD value [40] of the same binder?
The OD value was 186 OD.

What about the OD value [41] of the same binder?
Its OD value is 79 OD.

What about the OD value [42] of the same binder?
Its OD value is 137 OD.

What about the OD value [43] of the same binder?
The OD value was 88 OD.

And the OD value [44]?
The OD value was 96 OD.

What about the OD value [45] of the same binder?
Its OD value is 96 OD.

And the OD value [46]?
The OD value was 96 OD.

What about the OD value [47] of the same binder?
Its OD value is 65 OD.

What about the OD value [48] of the same binder?
The OD value was 41 OD.

And the OD value [49]?
Its OD value is 68 OD.

And the OD value [50]?
Its OD value is 92 OD.

And the OD value [51]?
Its OD value is 89 OD.

What about the OD value [52] of the same binder?
Its OD value is 108 OD.

What about the OD value [53] of the same binder?
Its OD value is 136 OD.

And the OD value [54]?
The OD value was 46 OD.

And the OD value [55]?
Its OD value is 96 OD.

What about the OD value [56] of the same binder?
The OD value was 58 OD.

And the OD value [57]?
The OD value was 86 OD.

What about the OD value [58] of the same binder?
Its OD value is 55 OD.

And the OD value [59]?
The OD value was 90 OD.

What about the OD value [60] of the same binder?
The OD value was 84 OD.

And the OD value [61]?
Its OD value is 86 OD.
